Data from US20160264649A1 (published 2016).

Tests used:
Assay in all cases: cell-based or functional assay
HIV-1 92BR020 Env = HIV-1 92BR020 Env (HIV-1 strain 92BR020)
HIV-1 93IN905 Env = HIV-1 93IN905 Env (HIV-1 strain 93IN905)
HIV-1 SF162 Env [1] = target: T1, HIV-1 SF162 Env (HIV-1 strain SF162, UniProt P19550 32-847)
HIV-1 NL43 Env = HIV-1 NL43 Env (HIV-1 strain NL43)
HIV-1 94UG103 Env = HIV-1 94UG103 Env (HIV-1 strain 94UG103)
HIV-1 JR-CSF Env (gp160) = HIV-1 JR-CSF Env (gp160) (HIV-1 isolate JR-CSF, UniProt P20871 32-848)
HIV-1 92TH021 Env = HIV-1 92TH021 Env (HIV-1 strain 92TH021)
aMLV Env = aMLV Env (aMLV)
HIV-1 IAVI_C22 Env = HIV-1 IAVI_C22 Env (HIV-1 strain IAVI C22)
HIV-1 SF162 Env [2] = target: T1, HIV-1 SF162 Env; remark: listed apart in the source

Sequence of HIV-1 JR-CSF Env (gp160) (P20871 32-848): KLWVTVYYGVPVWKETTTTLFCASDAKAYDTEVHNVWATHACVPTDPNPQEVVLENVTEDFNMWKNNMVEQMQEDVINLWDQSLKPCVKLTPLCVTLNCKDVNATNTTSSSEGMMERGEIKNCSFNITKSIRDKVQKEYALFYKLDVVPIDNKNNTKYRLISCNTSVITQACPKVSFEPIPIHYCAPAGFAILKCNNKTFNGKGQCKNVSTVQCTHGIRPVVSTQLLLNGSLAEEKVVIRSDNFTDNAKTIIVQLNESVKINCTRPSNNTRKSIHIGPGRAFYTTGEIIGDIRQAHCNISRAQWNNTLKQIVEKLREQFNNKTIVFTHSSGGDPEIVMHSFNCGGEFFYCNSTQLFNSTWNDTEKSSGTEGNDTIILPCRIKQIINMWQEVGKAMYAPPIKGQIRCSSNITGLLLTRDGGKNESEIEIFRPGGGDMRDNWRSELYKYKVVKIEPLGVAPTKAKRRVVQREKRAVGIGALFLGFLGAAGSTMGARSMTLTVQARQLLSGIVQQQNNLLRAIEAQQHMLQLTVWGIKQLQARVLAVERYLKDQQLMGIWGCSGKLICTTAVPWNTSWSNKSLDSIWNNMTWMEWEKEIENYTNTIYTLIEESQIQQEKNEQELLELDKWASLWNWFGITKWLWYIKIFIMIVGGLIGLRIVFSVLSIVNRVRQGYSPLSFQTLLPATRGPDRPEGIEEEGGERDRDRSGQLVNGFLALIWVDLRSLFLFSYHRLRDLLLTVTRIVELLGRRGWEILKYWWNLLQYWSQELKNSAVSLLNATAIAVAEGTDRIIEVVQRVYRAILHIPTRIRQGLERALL

B1: 1456_P20 (PG20) (antibody, human IgG1, kappa, V domains shown)
VH: QVRLVQSGPEVKKPGSSVTVSCQASGGTFSSYAFTWVRQAPGQGLEWLGMVTPIFGEAKYSQRFEGRVTITADESTSTTSIELRGLTSEDTAIYYCARDRRAVPIATDNWLDPWGQGTLVTVSS
VL: DIQLTQSPSSLSASVGDRVSITCRASQTINNYLNWYQQTPGKAPKLLIYGASNLQNGVPSRFSGSGSGTDFTLTISSLQPEDFATYYCQQSFSTPRTFGQGTRLDIKR
IC50 neutralization, 1 hour virus/Ab incubation (HIV-1 92BR020 Env): > 50 µg/mL
IC50 neutralization, 18 hour virus/Ab incubation (HIV-1 92BR020 Env): > 50 µg/mL
IC50 neutralization, 1 hour virus/Ab incubation (HIV-1 93IN905 Env): > 50 µg/mL
IC50 neutralization, 18 hour virus/Ab incubation (HIV-1 93IN905 Env): 3.84 µg/mL
IC50 neutralization, 1 hour virus/Ab incubation (HIV-1 SF162 Env [1]): 0.195 µg/mL
IC50 neutralization, 18 hour virus/Ab incubation (HIV-1 SF162 Env [1]): 0.0661 µg/mL
IC50 neutralization, 1 hour virus/Ab incubation (HIV-1 NL43 Env): 0.2 µg/mL
IC50 neutralization, 18 hour virus/Ab incubation (HIV-1 NL43 Env): 0.05 µg/mL
IC50 neutralization, 1 hour virus/Ab incubation (HIV-1 94UG103 Env): > 50 µg/mL
IC50 neutralization, 18 hour virus/Ab incubation (HIV-1 94UG103 Env): > 50 µg/mL
IC50 neutralization, 1 hour virus/Ab incubation (HIV-1 JR-CSF Env (gp160)): > 50 µg/mL
IC50 neutralization, 18 hour virus/Ab incubation (HIV-1 JR-CSF Env (gp160)): > 50 µg/mL
IC50 neutralization, 1 hour virus/Ab incubation (HIV-1 92TH021 Env): > 50 µg/mL
IC50 neutralization, 18 hour virus/Ab incubation (HIV-1 92TH021 Env): > 50 µg/mL
IC50 neutralization, 1 hour virus/Ab incubation (aMLV Env): > 50 µg/mL
IC50 neutralization, 18 hour virus/Ab incubation (aMLV Env): > 50 µg/mL
IC50 neutralization, 1 hour virus/Ab incubation (HIV-1 IAVI_C22 Env): > 50 µg/mL
IC50 neutralization, 18 hour virus/Ab incubation (HIV-1 IAVI_C22 Env): > 50 µg/mL

B2: 1460_G14 (PGG14) (antibody, human IgG1, kappa, V domains shown)
VH: QVLLVQSGTEVKKPGSSVKVSCQASGGAFSSYAFSWVRQAPGQGLEWMGMITPVFGETKYAPRFQGRLTLTAEESLSTTYMELRSLTSDDTAFYYCTRDRRVVPMATDNWLDPWGQGTLVTVSS
VL: DIQLTQSPSSLSASVGDRVTVTCRASQTIHTYLNWYQQIPGKAPKLLIYGASTLQSGVPSRFSGSGSGTDFTLTINSLQPEDFATYYCQQSYSTPRTFGQGTRLDIKR
IC50 neutralization, 1 hour virus/Ab incubation (HIV-1 92BR020 Env): > 50 µg/mL
IC50 neutralization, 18 hour virus/Ab incubation (HIV-1 92BR020 Env): > 50 µg/mL
IC50 neutralization, 1 hour virus/Ab incubation (HIV-1 93IN905 Env): > 50 µg/mL
IC50 neutralization, 18 hour virus/Ab incubation (HIV-1 93IN905 Env): 3.17 µg/mL
IC50 neutralization, 1 hour virus/Ab incubation (HIV-1 NL43 Env): 0.17 µg/mL
IC50 neutralization, 18 hour virus/Ab incubation (HIV-1 NL43 Env): 0.05 µg/mL
IC50 neutralization, 1 hour virus/Ab incubation (HIV-1 94UG103 Env): > 50 µg/mL
IC50 neutralization, 18 hour virus/Ab incubation (HIV-1 94UG103 Env): > 50 µg/mL
IC50 neutralization, 1 hour virus/Ab incubation (HIV-1 92TH021 Env): > 50 µg/mL
IC50 neutralization, 18 hour virus/Ab incubation (HIV-1 92TH021 Env): > 50 µg/mL
IC50 neutralization, 1 hour virus/Ab incubation (aMLV Env): > 50 µg/mL
IC50 neutralization, 18 hour virus/Ab incubation (aMLV Env): > 50 µg/mL
IC50 neutralization, 1 hour virus/Ab incubation (HIV-1 IAVI_C22 Env): > 50 µg/mL
IC50 neutralization, 18 hour virus/Ab incubation (HIV-1 IAVI_C22 Env): > 50 µg/mL
Neutralization Index SF162 (clonal H and L transfectant) (HIV-1 SF162 Env [2]): 39.4

B3: 1443_C16 (PG16) (TCN-116) (antibody, V domains shown)
VH: QEQLVESGGGVVQPGGSLRLSCLASGFTFHKYGMHWVRQAPGKGLEWVALISDDGMRKYHSDSMWGRVTISRDNSKNTLYLQFSSLKVEDTAMFFCAREAGGPIWHDDVKYYDFNDGYYNYHYMDVWGKGTTVTVSS
VL: QSALTQPASVSGSPGQTITISCNGTSSDVGGFDSVSWYQQSPGKAPKVMVFDVSHRPSGISNRFSGSKSGNTASLTISGLHIEDEGDYFCSSLTDRSHRIFGGGTKVTVLG
IC50 neutralization, 1 hour virus/Ab incubation (HIV-1 92BR020 Env): > 50 µg/mL
IC50 neutralization, 18 hour virus/Ab incubation (HIV-1 92BR020 Env): > 50 µg/mL
IC50 neutralization, 1 hour virus/Ab incubation (HIV-1 93IN905 Env): 0.33 µg/mL
IC50 neutralization, 18 hour virus/Ab incubation (HIV-1 93IN905 Env): 0.255 µg/mL
IC50 neutralization, 1 hour virus/Ab incubation (HIV-1 SF162 Env [1]): > 50 µg/mL
IC50 neutralization, 18 hour virus/Ab incubation (HIV-1 SF162 Env [1]): > 50 µg/mL
IC50 neutralization, 1 hour virus/Ab incubation (HIV-1 NL43 Env): < 0.0025 µg/mL
IC50 neutralization, 18 hour virus/Ab incubation (HIV-1 NL43 Env): 4.99 µg/mL
IC50 neutralization, 1 hour virus/Ab incubation (HIV-1 94UG103 Env): 0.0211 µg/mL
IC50 neutralization, 18 hour virus/Ab incubation (HIV-1 94UG103 Env): 0.0085 µg/mL
IC50 neutralization, 1 hour virus/Ab incubation (HIV-1 JR-CSF Env (gp160)): < 0.0025 µg/mL
IC50 neutralization, 18 hour virus/Ab incubation (HIV-1 JR-CSF Env (gp160)): < 0.0025 µg/mL
IC50 neutralization, 1 hour virus/Ab incubation (HIV-1 92TH021 Env): 0.136 µg/mL
IC50 neutralization, 18 hour virus/Ab incubation (HIV-1 92TH021 Env): 0.0435 µg/mL
IC50 neutralization, 1 hour virus/Ab incubation (aMLV Env): > 50 µg/mL
IC50 neutralization, 18 hour virus/Ab incubation (aMLV Env): > 50 µg/mL
IC50 neutralization, 1 hour virus/Ab incubation (HIV-1 IAVI_C22 Env): 0.114 µg/mL
IC50 neutralization, 18 hour virus/Ab incubation (HIV-1 IAVI_C22 Env): 0.106 µg/mL
Neutralization Index SF162 (clonal H and L transfectant) (HIV-1 SF162 Env [2]): 0.67

B4: 1495_C14 (PGC14) (antibody, human IgG1, lambda, V domains shown)
VH: DGHLVQSGVEVKKTGATVKISCKVSGYSFIDYYLHWVQRAPGKGLEWVGLIDPENGEARYAEKFQGRVTIIADTSIDTGYMEMRSLKSEDTAVYFCAAGAVGADSGSWFDPWGQGTLVTVSS
VL: SYELTQPPSVSVSPGQTASITCSGSKLGDKYVSWYQLRPGQSPILVMYENDRRPSGIPERFSGSNSGDTATLTISGTQALDEADFYCQAWETTTTTFVFFGGGTQLTVLG
IC50 neutralization, 1 hour virus/Ab incubation (HIV-1 92BR020 Env): 1.17 µg/mL
IC50 neutralization, 18 hour virus/Ab incubation (HIV-1 92BR020 Env): 0.244 µg/mL
IC50 neutralization, 1 hour virus/Ab incubation (HIV-1 93IN905 Env): > 50 µg/mL
IC50 neutralization, 18 hour virus/Ab incubation (HIV-1 93IN905 Env): 0.146 µg/mL
IC50 neutralization, 1 hour virus/Ab incubation (HIV-1 SF162 Env [1]): 0.0069 µg/mL
IC50 neutralization, 18 hour virus/Ab incubation (HIV-1 SF162 Env [1]): < 0.0025 µg/mL
IC50 neutralization, 1 hour virus/Ab incubation (HIV-1 NL43 Env): 0.35 µg/mL
IC50 neutralization, 18 hour virus/Ab incubation (HIV-1 NL43 Env): 0.15 µg/mL
IC50 neutralization, 1 hour virus/Ab incubation (HIV-1 94UG103 Env): > 50 µg/mL
IC50 neutralization, 18 hour virus/Ab incubation (HIV-1 94UG103 Env): > 50 µg/mL
IC50 neutralization, 1 hour virus/Ab incubation (HIV-1 JR-CSF Env (gp160)): > 50 µg/mL
IC50 neutralization, 18 hour virus/Ab incubation (HIV-1 JR-CSF Env (gp160)): > 50 µg/mL
IC50 neutralization, 1 hour virus/Ab incubation (HIV-1 92TH021 Env): > 50 µg/mL
IC50 neutralization, 18 hour virus/Ab incubation (HIV-1 92TH021 Env): > 50 µg/mL
IC50 neutralization, 1 hour virus/Ab incubation (aMLV Env): > 50 µg/mL
IC50 neutralization, 18 hour virus/Ab incubation (aMLV Env): > 50 µg/mL
IC50 neutralization, 1 hour virus/Ab incubation (HIV-1 IAVI_C22 Env): > 50 µg/mL
IC50 neutralization, 18 hour virus/Ab incubation (HIV-1 IAVI_C22 Env): 13.4 µg/mL

B5: 1496_C09 (PG9) (TCN-109) (antibody, V domains shown)
VH: QRLVESGGGVVQPGSSLRLSCAASGFDFSRQGMHWVRQAPGQGLEWVAFIKYDGSEKYHADSVWGRLSISRDNSKDTLYLQMNSLRVEDTATYFCVREAGGPDYRNGYNYYDFYDGYYNYHYMDVWGKGTTVTVSS
VL: QSALTQPASVSGSPGQSITISCNGTSNDVGGYESVSWYQQHPGKAPKVVIYDVSKRPSGVSNRFSGSKSGNTASLTISGLQAEDEGDYYCKSLTSTRRRVFGTGTKLTVLG
IC50 neutralization, 1 hour virus/Ab incubation (HIV-1 92BR020 Env): > 50 µg/mL
IC50 neutralization, 18 hour virus/Ab incubation (HIV-1 92BR020 Env): > 50 µg/mL
IC50 neutralization, 1 hour virus/Ab incubation (HIV-1 93IN905 Env): 0.144 µg/mL
IC50 neutralization, 18 hour virus/Ab incubation (HIV-1 93IN905 Env): 0.0619 µg/mL
IC50 neutralization, 1 hour virus/Ab incubation (HIV-1 SF162 Env [1]): > 50 µg/mL
IC50 neutralization, 18 hour virus/Ab incubation (HIV-1 SF162 Env [1]): > 50 µg/mL
IC50 neutralization, 1 hour virus/Ab incubation (HIV-1 NL43 Env): 0.294 µg/mL
IC50 neutralization, 18 hour virus/Ab incubation (HIV-1 NL43 Env): 38 µg/mL
IC50 neutralization, 1 hour virus/Ab incubation (HIV-1 94UG103 Env): 0.334 µg/mL
IC50 neutralization, 18 hour virus/Ab incubation (HIV-1 94UG103 Env): 0.0942 µg/mL
IC50 neutralization, 1 hour virus/Ab incubation (HIV-1 92TH021 Env): 0.0612 µg/mL
IC50 neutralization, 18 hour virus/Ab incubation (HIV-1 92TH021 Env): 0.0571 µg/mL
IC50 neutralization, 1 hour virus/Ab incubation (aMLV Env): > 50 µg/mL
IC50 neutralization, 18 hour virus/Ab incubation (aMLV Env): > 50 µg/mL
IC50 neutralization, 1 hour virus/Ab incubation (HIV-1 IAVI_C22 Env): 24.9 µg/mL
IC50 neutralization, 18 hour virus/Ab incubation (HIV-1 IAVI_C22 Env): 2.11 µg/mL

B6: 1496 C09 γ3 017 + 1496 C09 λ3 024 (antibody, V domains shown)
VH: QRLVESGGGVVQPGSSLRLSCAASGFDFSRQGMHWVRQAPGQGLEWVAFIKYDGSEKYHADSVWGRLSISRDNSKDTLYLQMNSLRVEDTATYFCVREAGGPDYRNGYNYYDFYDGYYNYHYMDVWGKGTTVTVSS
VL: QSALTQPASVSGSPGQTITISCNGTSSDVGGFDSVSWYQQSPGKAPKVMVFDVSHRPSGISNRFSGSKSGNTASLTISGLHIEDEGDYFCSSLTDRSHRIFGGGTKVTVLG
Neutralization Index SF162 (clonal H and L transfectant) (HIV-1 SF162 Env [2]): 0.94
